{"source": "paper PMC4094278", "about": "“The Dictyostelium discoideum RACK1 orthologue has roles in growth and development” (Cell Communication and Signaling : CCS, 2014)", "proteins": {"B1": {"name": "recombinant DdRACK1 full length protein cleaved from the GST part (natural protein, D. discoideum, UniProt P46800 1-329, looked up)", "chain": "MEQQKAPQVTYLEVGSLVGHNGFVTSIAVSPENPDTIISSSRDKTVMVWQLTPTDATSPGKAHRSLKGHSHFVQDVVISHDGQFALSGSWDNTLRLWDITKGVSTRLFKGHTQDVMSVAFSSDNRQIISGSRDATIKVWNTLGECKFTLEGPEAHQDWVSCIRFSPNTPTIVSGSWDNKVKIWDIKSFKCNHTLTDHTGYVNTVTISPDGSLCASGGKDTFACLWELSSGKPLYKLEARNTINALAFSPNKYWLSAATDDKIIIWDLLTKQVLAEIVPEVKEQAFDSKKKKESKPKAPACLSLAWSADGSVLYAGYNDGLIRVYKSSSQ", "notes": "D. discoideum RACK1 (GpbB), 329 amino acids; Cloned in pGEX-4T-1; cleaved with thrombin; also called GpbB; D. discoideum RACK1; source: E. coli XL1 Blue, purified (GST-Sepharose, thrombin cleavage, DE-52 anion exchange)"}}, "target": "the molecule itself", "assay": "cross-linking; 5-10 μg/100 μl recombinant protein in 1 x PBS, pH 7.4, room temperature, 0.001% glutaraldehyde, 5, 10 and 20 min, stopped with 0.1 M glycine; SDS-PAGE and western blot with anti-DdRACK1 antibodies; dimers and oligomers also seen without glutaraldehyde"}
{"protein": "B1", "values": [{"measurement": "binding result", "result": "binds"}]}
